Measurements as given in patent US20260070984A1 (Boehringer Ingelheim, published 2026).

Each binder was assayed against T1, recombinant human PD-1 (human, UniProt Q15116 25-167, limits assumed) (assay: SPR, ProteOn XPR36).
T1 construct: Soluble recombinant protein used in SPR; also called PDCD1; purified recombinant human PD-1
Experimental: Kinetics and binding affinities were measured using the ProteOn™ XPR36 (Biorad, Hercules, CA) surface plasmon resonance optical biosensor using material generated from transient transfection following single column purification.

T1 sequence (Q15116 25-167 limits assumed): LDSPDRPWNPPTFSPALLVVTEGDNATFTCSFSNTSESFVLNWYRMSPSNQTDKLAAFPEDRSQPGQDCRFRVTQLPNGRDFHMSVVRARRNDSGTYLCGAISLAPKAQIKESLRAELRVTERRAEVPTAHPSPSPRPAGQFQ

Row | Kd | koff | kon | Binder
1 | 13 nM | 0.000305 s⁻¹ | 23400 M⁻¹ s⁻¹ | Chimeric 701C1 (antibody, V domains shown, Mouse variable domains in human IgG4Pro (Ser228Pro) backbone; also called 701C1 in human IgG4Pro backbone) VH: EVQLQQSGPELVKPGASVKMSCKASGYTFTSYVIHWVKQKPGQGLEWIGYIDPSNDDTKYNEKFKGKATLTSDKSSSTAYMELSSLTSEDSAVYYCAREAYYGGLYGMDYWGQGTSVTVSS VL: not shown
2 | 56.4 nM | 0.00765 s⁻¹ | 136000 M⁻¹ s⁻¹ | Chimeric 306E6 (antibody, V domains shown, Mouse variable domains in human IgG4Pro (Ser228Pro) backbone; also called 306E6 in human IgG4Pro backbone) VH: EVQLQQSGPELVKPGSSVKISCKASGYTFTDYYVNWVKQSHGKSLEWFGDIHPNSGDTTYNQKFKDKATLTVDKSSSTAYMELRSLTSEDSAVYYCARRRYDYDGFAYWGQGTLVTVSA VL: EIVMTQAAFSNPVTLGTSASISCRSSKSLLHRNGITYLYWYLQKPGQSPQLLIYEMSNLASGVPDRFSSSGSGTDFTLRISRVEAEDVGVYYCGQNLEFPLTFGAGTKLELK
3 | 63.5 nM | 0.0074 s⁻¹ | 116000 M⁻¹ s⁻¹ | Chimeric 307A3 (antibody, V domains shown, Mouse variable domains in human IgG4Pro (Ser228Pro) backbone; also called 307A3 in human IgG4Pro backbone) VH: EVQLQQSGPELVKPGASVKISCKASGYTFTDYYVNWVKQSHGKSLEWFGDIHPNNGGITYNQKFKGKASLTVDKSSSTAYMELRSLTSEDSAVYYCARRRYDYDGFAYWGQGTLVTVSA VL: EIVMTQAAFSNPVTLGTSASISCRSSKSLLHRNGITYLYWYLQKPGQSPQLLIYEMSNLASGVPDRFSGSGSGTDFTLRISRVEAEDVGVYYCGQNLEFPLTFGAGTKLELK
4 | 1.5 nM | 0.000269 s⁻¹ | 180000 M⁻¹ s⁻¹ | Chimeric 414A12 (antibody, V domains shown, Mouse variable domains in human IgG4Pro (Ser228Pro) backbone; also called 414A12 in human IgG4Pro backbone) VH: QVQLQQPGAELVKPGASVKLSCKASGHTFTSNWIHWVKQRPGQGLEWIGEIDPSDSYTYYNQKFKGKATLTVDKSSSTAYMQLSSLTSEDSAVYSCACPGRNSNFAYWGQGTTLTVSS VL: DILMTQSPSSMSVSLGDTVSITCHASQGINNNIGWLQQKPGKSFKGLIYHKSNLEDGVPSRFSGSGSGADYSLTISSLESEDFADYYCVQYAQFPYTFGGGTKLEIK
5 | 6.39 nM | 0.000349 s⁻¹ | 54700 M⁻¹ s⁻¹ | Chimeric 502H1 (antibody, V domains shown, Mouse variable domains in human IgG4Pro (Ser228Pro) backbone; also called 502H1 in human IgG4Pro backbone) VH: QVTLKESGPGILQPSQTLSLTCSFSGFSLSTSGMGVTWIRKPSGQGLEWLAHIFWDGDKRYNPSLKSRLTISKDSSSNQVFLMITGVGTADAATYYCARYYYFDYGYAIDYWGQGTSVTVSS VL: DIVMTQAAFYNPVTLGTSASISCRSSKSLLHRNGITYLYWYLQKPGQSPQLLIYQMSNLASGVPDRFSSSGSGADFTLRISRVEAEDVGVYYCAQNLELPLTFGAGTKLELK
6 | 1.62 nM | 0.000143 s⁻¹ | 88300 M⁻¹ s⁻¹ | Chimeric 701E9 (antibody, V domains shown, Mouse variable domains in human IgG4Pro (Ser228Pro) backbone; also called 701E9 in human IgG4Pro backbone) VH: QVQLQQSGPELVKPGASVKLSCKASGYTFIDYTIHWVKQSPGQGLEWIGWIFPGSTNDTKYNDKFKGKATMTADKSSSTAYMQLSSLTSEDSAVYFCARYRTDFDYWGQGTTLTVSS VL: DIQMTQSPSSLSASLGERVSLTCRASQEISGYLSWLQQKPDGTIKRLIYAASTLDSGVPKRFSGSRSGSDYSLTISSLESEDFADYYCLQYASYPLTFGAGTKLELK
7 | 8.08 nM | 0.000348 s⁻¹ | 43100 M⁻¹ s⁻¹ | Chimeric 708E4 (antibody, V domains shown, Mouse variable domains in human IgG4Pro (Ser228Pro) backbone; also called 708E4 in human IgG4Pro backbone) VH: QIQLQQSGPELVKPGASVKISCKASGYTFTDYYLNWVKQRPGHGLEWIGWIYPGSSDTKHNENFKGKATLTVDTYSSTAYMQLGSLTSEDSAVYFCTRYSNFFFDYWGQGTTLTVSS VL: DIVMTQSQKFLSTSVGDRVRVTCKASQNVVTYVAWYQQKPGQSPKSLIYSASYRYSGVPDRFTGSGSGTYFTLTINNVQFEDLAEYFCQQYHSYPYTFGGGTKLEIK
8 | 5.52 nM | 0.000483 s⁻¹ | 87400 M⁻¹ s⁻¹ | Chimeric 709A6 (antibody, V domains shown, Mouse variable domains in human IgG4Pro (Ser228Pro) backbone; also called 709A6 in human IgG4Pro backbone) VH: QVTLKESGPGILQPSQTLSLTCSFSGFSLSTSGMGVSWIRQPSGKGLEWLTHIYWDDDKRYNPSLKSRLTISKDTSRNQVFLEITSVDTADTATYFCARSSQGLYSSYDYWGQGTTLTVSS VL: DIVLTQSPASLAVSLGQRATISCRASESVDIYGISFLHWYQQKPGQPPKHLIYRASNLDSGIPARFSGSGSRTDFTLTINPVETDDVATYYCQQSNKDPLTFGAGTKLELK
9 | 5.02 nM | 0.00053 s⁻¹ | 106000 M⁻¹ s⁻¹ | Chimeric 803E6 (antibody, V domains shown, Mouse variable domains in human IgG4Pro (Ser228Pro) backbone; also called 803E6 in human IgG4Pro backbone) VH: EVKLVESEGGLVQPGSSMKLSCTASGFTFSDYYMAWVRQVPEKGLEWVANINYDGFNTYYLDSLKSRFIISRDNAKNILYLQMSSLKSEDTATYYCARGGYWSLYFDYWGQGTTLTVSS VL: DIVMTQSPSSLTVTAGEKVTMSCKSSQSLLHSGNQKNYMTWYQQKPGQPPKLLIYWASTRESGVPDRFTGSGSGTDFTLTISSVQAEDLAVYYCQNDYSYPLTFGAGTKLELK
10 | 9.14 nM | 0.000801 s⁻¹ | 87700 M⁻¹ s⁻¹ | Chimeric 811G3 (antibody, V domains shown, Mouse variable domains in human IgG4Pro (Ser228Pro) backbone; also called 811G3 in human IgG4Pro backbone) VH: QIQLQQSGPEVVKPGASVKISCKASGYTFTDYYINWVKQRPGQGLEWIGWIYPGGGHTKYNEKFKGEATLTVDTSSRTAYMQLSSLTSEDSAVYFCARYSNYYFDFWGHGTTLTVSS VL: DIQMTQSPSSLSASPGERVSLTCRASQEISGYLSWLQQKPDGTIKRLIYVASTLDSGVPKRFSGSRSGSDYSLTISSLESEDFADYYCLQYANYPYTFGGGTKLEIK
11 | 1.85 nM | 0.000149 s⁻¹ | 80700 M⁻¹ s⁻¹ | Chimeric 814E10 (antibody, V domains shown, Mouse variable domains in human IgG4Pro (Ser228Pro) backbone; also called 814E10 in human IgG4Pro backbone) VH: QIQLQQSGPELVKPGASVKISCKASGYTFTSYYIQWVKQRPGQGLEWIGWIYPGDGTTNYNENFKGKTTLTADKSSSTVYMLLSSLTSEDSAVYFCARYGLVPFDYWGQGTTLTVSS VL: DIQMTQTTSSLSASLGDRVTISCSASQDIINYLNWYQQKPDGTVKLLIYSTSSLHSGVSLRFSGSGSGTDYSLTISNLEPEDVATYYCHQYSQLPYTFGGGTKLEIK
12 | 0.859 nM | 5.77e-05 s⁻¹ | 67100 M⁻¹ s⁻¹ | Chimeric 313C12 (antibody, V domains shown, Mouse variable domains in human IgG4Pro (Ser228Pro) backbone; also called 313C12 in human IgG4Pro backbone) VH: EVQLVESGGGLVKPGGSLKLSCAASGFTFSDYGMHWVRQTPEKGLEWIAYINSDSNTIYYADTVKGRFTISRDNARKTLYLQMTSLRSEDTAMYYCSPLVAPDYWGQGTTLTVSS VL: DIVMTQSQKFMSTTVGDRVSITCKASQNVGTAVAWYQQKPGQSPKLLIYSVSNRYTGVPDRFTGSGSGTDFTLTISNMQSEDLADYFCQQYSSYPFTFGAGTKLELK

The binders below were run against human PD-1 expressed on cells (human, UniProt Q15116 25-288) (assay: cell-based or functional assay).
human PD-1 expressed on cells, sequence (Q15116 25-288): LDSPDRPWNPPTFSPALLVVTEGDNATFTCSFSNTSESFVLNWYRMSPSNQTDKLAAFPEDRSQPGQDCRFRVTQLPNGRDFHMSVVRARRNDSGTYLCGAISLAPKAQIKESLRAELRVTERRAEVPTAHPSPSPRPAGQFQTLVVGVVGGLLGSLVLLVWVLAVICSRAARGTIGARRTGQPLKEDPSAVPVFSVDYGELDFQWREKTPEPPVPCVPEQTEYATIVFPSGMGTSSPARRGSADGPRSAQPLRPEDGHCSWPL

Row | Emax Values (%), inhibition of NFAT activity | IC50 Values (nM), inhibition of NFAT activity | Binder
13 | 48.9% | 0.34 nM | 502H1 (mouse IgG1 backbone) (antibody, V domains shown) VH: QVTLKESGPGILQPSQTLSLTCSFSGFSLSTSGMGVTWIRKPSGQGLEWLAHIFWDGDKRYNPSLKSRLTISKDSSSNQVFLMITGVGTADAATYYCARYYYFDYGYAIDYWGQGTSVTVSS VL: DIVMTQAAFYNPVTLGTSASISCRSSKSLLHRNGITYLYWYLQKPGQSPQLLIYQMSNLASGVPDRFSSSGSGADFTLRISRVEAEDVGVYYCAQNLELPLTFGAGTKLELK
14 | 53.2% | 1.69 nM | 701C1 (mouse IgG1 backbone) (antibody, V domains shown) VH: EVQLQQSGPELVKPGASVKMSCKASGYTFTSYVIHWVKQKPGQGLEWIGYIDPSNDDTKYNEKFKGKATLTSDKSSSTAYMELSSLTSEDSAVYYCAREAYYGGLYGMDYWGQGTSVTVSS VL: not shown
15 | 46% | 0.22 nM | 701E9 (mouse IgG1 backbone) (antibody, V domains shown) VH: QVQLQQSGPELVKPGASVKLSCKASGYTFIDYTIHWVKQSPGQGLEWIGWIFPGSTNDTKYNDKFKGKATMTADKSSSTAYMQLSSLTSEDSAVYFCARYRTDFDYWGQGTTLTVSS VL: DIQMTQSPSSLSASLGERVSLTCRASQEISGYLSWLQQKPDGTIKRLIYAASTLDSGVPKRFSGSRSGSDYSLTISSLESEDFADYYCLQYASYPLTFGAGTKLELK
16 | 29.8% | 0.04 nM | 709A6 (mouse IgG1 backbone) (antibody, V domains shown) VH: QVTLKESGPGILQPSQTLSLTCSFSGFSLSTSGMGVSWIRQPSGKGLEWLTHIYWDDDKRYNPSLKSRLTISKDTSRNQVFLEITSVDTADTATYFCARSSQGLYSSYDYWGQGTTLTVSS VL: DIVLTQSPASLAVSLGQRATISCRASESVDIYGISFLHWYQQKPGQPPKHLIYRASNLDSGIPARFSGSGSRTDFTLTINPVETDDVATYYCQQSNKDPLTFGAGTKLELK
17 | 48.3% | 0.38 nM | 803E6 (mouse IgG1 backbone) (antibody, V domains shown) VH: EVKLVESEGGLVQPGSSMKLSCTASGFTFSDYYMAWVRQVPEKGLEWVANINYDGFNTYYLDSLKSRFIISRDNAKNILYLQMSSLKSEDTATYYCARGGYWSLYFDYWGQGTTLTVSS VL: DIVMTQSPSSLTVTAGEKVTMSCKSSQSLLHSGNQKNYMTWYQQKPGQPPKLLIYWASTRESGVPDRFTGSGSGTDFTLTISSVQAEDLAVYYCQNDYSYPLTFGAGTKLELK
18 | 44.5% | 0.14 nM | 811G3 (mouse IgG1 backbone) (antibody, V domains shown) VH: QIQLQQSGPEVVKPGASVKISCKASGYTFTDYYINWVKQRPGQGLEWIGWIYPGGGHTKYNEKFKGEATLTVDTSSRTAYMQLSSLTSEDSAVYFCARYSNYYFDFWGHGTTLTVSS VL: DIQMTQSPSSLSASPGERVSLTCRASQEISGYLSWLQQKPDGTIKRLIYVASTLDSGVPKRFSGSRSGSDYSLTISSLESEDFADYYCLQYANYPYTFGGGTKLEIK
19 | 42.6% | 1.03 nM | 307A3 (mouse IgG1 backbone) (antibody, V domains shown) VH: EVQLQQSGPELVKPGASVKISCKASGYTFTDYYVNWVKQSHGKSLEWFGDIHPNNGGITYNQKFKGKASLTVDKSSSTAYMELRSLTSEDSAVYYCARRRYDYDGFAYWGQGTLVTVSA VL: EIVMTQAAFSNPVTLGTSASISCRSSKSLLHRNGITYLYWYLQKPGQSPQLLIYEMSNLASGVPDRFSGSGSGTDFTLRISRVEAEDVGVYYCGQNLEFPLTFGAGTKLELK
20 | 45% | 0.39 nM | 414A12 (mouse IgG1 backbone) (antibody, V domains shown) VH: QVQLQQPGAELVKPGASVKLSCKASGHTFTSNWIHWVKQRPGQGLEWIGEIDPSDSYTYYNQKFKGKATLTVDKSSSTAYMQLSSLTSEDSAVYSCACPGRNSNFAYWGQGTTLTVSS VL: DILMTQSPSSMSVSLGDTVSITCHASQGINNNIGWLQQKPGKSFKGLIYHKSNLEDGVPSRFSGSGSGADYSLTISSLESEDFADYYCVQYAQFPYTFGGGTKLEIK
